# Assay results: the Human Domainome abundance scans (Beltran et al. 2025)
# ± gives the uncertainty stated by the source.
# B1: Chromodomain-helicase-DNA-binding protein 3, residues 374 to 426; numbered along this chain, Q12873 (parent)
# chain: YETDHQDYCEVCQQGGEIILCDTCPRAYHLVCLDPELDRAPEGKWSCPHCEKE
# Variants of: B1
# Experiment: abundance fitness (aPCA) (normalised: wild type 0, dead -1); higher = more abundant; growth selection in yeast, the domain comes from the species named
# Conditions: Homo sapiens
row,Variant,abundance fitness
1,P48C,-0.203 ± 0.15
2,P48H,-0.599 ± 0.28
3,P48G,-0.031 ± 0.097
4,P48K,-0.109 ± 0.13
5,P48S,-0.217 ± 0.11
6,P48A,-0.002 ± 0.11
7,P48T,-0.24 ± 0.16
8,P48E,-0.074 ± 0.14
9,P48Q,-0.078 ± 0.2
10,P48V,-0.139 ± 0.11
11,P48W,-0.358 ± 0.14
12,R39L,-0.156 ± 0.14
13,R39V,-0.248 ± 0.11
14,R39C,-0.221 ± 0.17
15,R39S,0.01 ± 0.12
16,R39M,-0.009 ± 0.18
17,R39P,-0.084 ± 0.24
18,R39N,0.034 ± 0.21
19,R39W,-0.2 ± 0.19
20,R39Y,-0.027 ± 0.19
21,R39I,0.149 ± 0.17

row,Variant,abundance fitness
1,R39F,-0.254 ± 0.14
2,R39H,-0.248 ± 0.25
3,R39Q,-0.182 ± 0.26
4,R39A,0.068 ± 0.14
5,R39T,-0.037 ± 0.17
6,R39G,-0.123 ± 0.13
7,R39D,-0.138 ± 0.17
8,C47K,-1.02 ± 0.28
9,C47T,-0.931 ± 0.2
10,C47H,-1.07 ± 0.38
11,C47S,-0.814 ± 0.16
12,C47Q,-0.835 ± 0.31
13,C47F,-0.465 ± 0.19
14,C47V,-0.753 ± 0.12
15,C47E,-1.08 ± 0.21
16,C47R,-0.835 ± 0.12
17,C47P,-1.05 ± 0.22
18,C47D,-0.512 ± 0.21
19,C47Y,-0.972 ± 0.23
20,C47W,-0.847 ± 0.18
21,C47M,-0.657 ± 0.18

row,Variant,abundance fitness
1,C47G,-0.767 ± 0.11
2,C47A,-1.06 ± 0.15
3,G43N,0.204 ± 0.14
4,G43Y,-0.277 ± 0.17
5,G43A,-0.314 ± 0.15
6,G43P,0.057 ± 0.17
7,G43H,-0.12 ± 0.16
8,G43K,0.119 ± 0.19
9,G43T,-0.128 ± 0.18
10,G43M,-0.039 ± 0.21
11,G43F,-0.257 ± 0.19
12,G43I,-0.368 ± 0.21
13,G43C,-0.369 ± 0.13
14,G43Q,-0.001 ± 0.24
15,G43E,0.22 ± 0.15
16,G43S,-0.043 ± 0.096
17,G43R,-0.142 ± 0.088
18,G43L,-0.343 ± 0.12
19,G43D,-0.031 ± 0.16
20,G43V,0.054 ± 0.1
21,K44M,-0.011 ± 0.19

row,Variant,abundance fitness
1,K44N,-0.492 ± 0.45
2,K44V,-0.39 ± 0.13
3,K44C,-0.071 ± 0.14
4,K44R,0.043 ± 0.1
5,K44P,-0.264 ± 0.16
6,K44L,-0.011 ± 0.11
7,K44E,-0.096 ± 0.13
8,K44T,-0.304 ± 0.18
9,K44I,0.363 ± 0.25
10,K44W,-0.525 ± 0.14
11,K44G,0.101 ± 0.092
12,K44Q,0.038 ± 0.14
13,K44S,0.077 ± 0.13
14,K44Y,-0.395 ± 0.26
15,K44F,-0.136 ± 0.37
16,K44D,-0.329 ± 0.24
17,H49G,-0.033 ± 0.093
18,H49I,0.221 ± 0.39
19,H49R,-0.143 ± 0.1
20,H49A,-0.183 ± 0.16
